Molecular target: MUC4 glycopeptide
Assay: peptide or protein array; glycan microarray, components printed on epoxy slides; re-expressed antibody in solution at four concentrations from 1.5 to 100 μg/ml on the 873-component array; PBS pH 7.4, 0.05% Tween-20, 3% BSA; 37 °C, 3.5 h; detected with Cy3 anti-human IgG; apparent KD estimated by the method of Gordus and MacBeath

- Kd: > 1000 nM
B1: ADI-47299 (antibody, V domains shown)
VH: QVQLVQSGGGVVQPGRSLRLSCAASGFTFRLYSMHWVRQAPGKGLEWVGVISHTVTDKLYADSVKGRFSVSRDNSKNTLFLQMDSLRAEDTAVYYCARDGFDYWGQGTLVTVSS
VL: EIVMTQSPLSLPVTLGQPASISCKSSQSLVYSDGDTYLNWFQQRPGQSPRRLIYKVSKRDSGVPDRFSGSGSGTDFTLKISRVEAEDLGVYYCMQGTHWPLTFGPGTKLEIK
